In PMC9604360 (2022):

Molecular target: T1, Ribonuclease A (scrambled, oxidized) (Bos taurus, UniProt P61823)
T1 chain: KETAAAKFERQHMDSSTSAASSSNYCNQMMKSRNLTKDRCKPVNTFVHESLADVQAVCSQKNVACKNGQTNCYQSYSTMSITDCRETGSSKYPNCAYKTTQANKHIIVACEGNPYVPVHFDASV
Test: intrinsic fluorescence quenching

B1: MET 25-932 (protein)
chain: ECKEALAKSEMNVNMKYQLPNFTAETPIQNVILHEHHIFLGATNYIYVLNEEDLQKVAEYKTGPVLEHPDCFPCQDCSSKANLSGGVWKDNINMALVVDTYYDDQLISCGSVNRGTCQRHVFPHNHTADIQSEVHCIFSPQIEEPSQCPDCVVSALGAKVLSSVKDRFINFFVGNTINSSYFPDHPLHSISVRRLKETKDGFMFLTDQSYIDVLPEFRDSYPIKYVHAFESNNFIYFLTVQRETLDAQTFHTRIIRFCSINSGLHSYMEMPLECILTEKRKKRSTKKEVFNILQAAYVSKPGAQLARQIGASLNDDILFGVFAQSKPDSAEPMDRSAMCAFPIKYVNDFFNKIVNKNNVRCLQHFYGPNHEHCFNRTLLRNSSGCEARRDEYRTEFTTALQRVDLFMGQFSEVLLTSISTFIKGDLTIANLGTSEGRFMQVVVSRSGPSTPHVNFLLDSHPVSPEVIVEHTLNQNGYTLVITGKKITKIPLNGLGCRHFQSCSQCLSAPPFVQCGWCHDKCVRSEECLSGTWTQQICLPAIYKVFPNSAPLEGGTRLTICGWDFGFRRNNKFDLKKTRVLLGNESCTLTLSESTMNTLKCTVGPAMNKHFNMSIIISNGHGTTQYSTFSYVDPVITSISPKYGPMAGGTLLTLTGNYLNSGNSRHISIGGKTCTLKSVSNSILECYTPAQTISTEFAVKLKIDLANRETSIFSYREDPIVYEIHPTKSFISGGSTITGVGKNLNSVSVPRMVINVHEAGRNFTVACQHRSNSEIICCTTPSLQQLNLQLPLKTKAFFMLDGILSKYFDLIYVHNPVFKPFEKPVMISMGNENVLEIKGNDIDPEAVKGEVLKVGNKSCENIHLHSEAVLCTVPNDLLKLNSELNIEWKQAISSTVLGKVIVQPDQNFT
modifications: scrambled disulfides of RNase A
Work on B1 yielded a Kd of roughly 300 nM.
